Test results: article doi:10.1101/2024.05.03.592409 (bioRxiv, 2024)

B1: HER4 (receptor)
chain: QSVCAGTENKLSSLSDLEQQYRALRKYYENCEVVMGNLEITSIEHNRDLSFLRSVREVTGYVLVALNQFRYLPLENLRIIRGTKLYEDRYALAIFLNYRKDGNFGLQELGLKNLTEILNGGVYVDQNKFLCYADTIHWQDIVRNPWPSNLTLVSTNGSSGCGRCHKSCTGRCWGPTENHCQTLTRTVCAEQCDGRCYGPYVSDCCHRECAGGCSGPKDTDCFACMNFNDSGACVTQCPQTFVYNPTTFQLEHNFNAKYTYGAFCVKKCPHNFVVDSSSCVRACPSSKMEVEENGIKMCKPCTDICPKACDGIGTGSLMSAQTVDSSNIDKFINCTKINGNLIFLVTGIHGDPYNAIEAIDPEKLNVFRTVREITGFLNIQSWPPNMTDFSVFSNLVTIGGRVLYSGLSLLILKQQGITSLQFQSLKEISAGNIYITDNSNLCYYHTINWTTLFSTINQRIVIRDNRKAENCTAEGMVCNHLCSSDGCWGPGPDQCLSCRRFSRGRICIESCNLYDGEFREFENGSICVECDPQCEKMEDGLLTCHGPGPDNCTKCSHFKDGPNCVEKCPDGLQGANSFIFKYADPDRECHPCHPNCTQGCNGPTSHDCIYYPWTGHSTLPQHARTPLIAAGVIGGLFILVIVGLTFAVYVRRKSIKKKRALRRFLETELVEPLTPSGTAPNQAQLRILKETELKRVKVLGSGAFGTVYKGIWVPEGETVKIPVAIKILNETTGPKANVEFMDEALIMASMDHPHLVRLLGVCLSPTIQLVTQLMPHGCLLEYVHEHKDNIGSQLLLNWCVQIAKGMMYLEERRLVHRDLAARNVLVKSPNHVKITDFGLARLLEGDEKEYNADGGKMPIKWMALECIHYRKFTHQSDVWSYGVTIWELMTFGGKPYDGIPTREIPDLLEKGERLPQPPICTIDVYMVMVKCWMIDADSRPKFKELAAEFSRMARDPQRYLVIQGDDRMKLPSPNDSKFFQNLLDEEDLEDMMDAEEYLVPQAFNIPPPIYTSRARIDSNRSEIGHSPPPAYTPMSGNQFVYRDGGFAAEQGVSVPYRAPTSTIPEAPVAQGATAEIFDDSCCNGTLRKPVAPHVQEDSSTQRYSADPTVFAPERSPRGELDEEGYMTPMRDKPKQEYLNPVEENPFVSRRKNGDLQALDNPEYHNASNGPPKAEDEYVNEPLYLNTFANTLGKAEYLKNNILSMPEKAKKAFDNPDYWNHSLPPRSTLQHPDYLQEYSTKYFYKQNGRIRPIVAENPEYLSEFSLKPGTVLPPPPYRHRNTVV

Assays:
Assay in all cases: PIE-FCCS
[1] = biological target: GCN4 (membrane protein construct, live-cell dimer control)
EGFR = EGFR (human, UniProt P00533 25-1210)
HER2 = HER2 (human, UniProt P04626 23-1255)
HER3 = HER3 (human, UniProt P21860 20-1342)
Sequence of HER3 (P21860 20-1342): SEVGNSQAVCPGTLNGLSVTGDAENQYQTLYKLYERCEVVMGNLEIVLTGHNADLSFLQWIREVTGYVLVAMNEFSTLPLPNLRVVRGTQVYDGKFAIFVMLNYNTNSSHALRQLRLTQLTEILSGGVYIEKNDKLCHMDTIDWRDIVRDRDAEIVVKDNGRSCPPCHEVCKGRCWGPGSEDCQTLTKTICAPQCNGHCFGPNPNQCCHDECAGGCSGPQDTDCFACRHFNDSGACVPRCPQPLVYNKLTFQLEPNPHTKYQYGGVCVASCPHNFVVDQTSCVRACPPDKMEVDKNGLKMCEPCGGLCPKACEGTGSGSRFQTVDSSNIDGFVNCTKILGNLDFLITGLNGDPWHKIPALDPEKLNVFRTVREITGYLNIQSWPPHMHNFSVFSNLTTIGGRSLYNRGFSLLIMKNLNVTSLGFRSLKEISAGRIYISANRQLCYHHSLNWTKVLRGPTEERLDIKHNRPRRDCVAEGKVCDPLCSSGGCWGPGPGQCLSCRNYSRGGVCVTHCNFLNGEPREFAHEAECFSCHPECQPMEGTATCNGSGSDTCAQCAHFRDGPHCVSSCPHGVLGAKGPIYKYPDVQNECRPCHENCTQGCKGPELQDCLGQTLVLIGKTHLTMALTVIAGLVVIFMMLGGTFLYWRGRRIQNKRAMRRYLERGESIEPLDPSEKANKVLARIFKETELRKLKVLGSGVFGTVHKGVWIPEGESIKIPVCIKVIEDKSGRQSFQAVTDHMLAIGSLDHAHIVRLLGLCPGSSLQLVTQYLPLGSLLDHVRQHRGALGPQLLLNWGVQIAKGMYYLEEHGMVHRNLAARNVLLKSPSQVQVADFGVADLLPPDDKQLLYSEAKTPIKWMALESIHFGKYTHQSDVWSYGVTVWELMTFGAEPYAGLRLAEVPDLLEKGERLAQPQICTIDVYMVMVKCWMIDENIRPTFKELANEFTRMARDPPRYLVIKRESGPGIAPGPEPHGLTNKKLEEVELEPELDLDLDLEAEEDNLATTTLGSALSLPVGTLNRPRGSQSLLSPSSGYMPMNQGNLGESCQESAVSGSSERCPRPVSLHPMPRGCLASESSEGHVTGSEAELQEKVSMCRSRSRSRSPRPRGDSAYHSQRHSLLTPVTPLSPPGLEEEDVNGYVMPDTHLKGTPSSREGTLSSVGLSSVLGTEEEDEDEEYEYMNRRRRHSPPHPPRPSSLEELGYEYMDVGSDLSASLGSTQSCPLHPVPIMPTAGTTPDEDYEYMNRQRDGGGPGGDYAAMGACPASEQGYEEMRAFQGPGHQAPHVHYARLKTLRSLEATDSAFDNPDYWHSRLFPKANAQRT

Molecule	median fc (fraction of cross-correlation) [1]	stoichiometry N [1]	median fc (fraction of cross-correlation) (EGFR)	median fc (fraction of cross-correlation) (HER2)	median fc (fraction of cross-correlation) (HER3)
GCN4 (membrane protein construct, live-cell dimer control)	0.15	2			
B1			0.17	0.17	0.11
